Results published in IntAct's records for PubMed 13679922.

B1: Protein maternal effect lethal 26 (Caenorhabditis elegans), Q94420 (parent)
chain: MEPRIDGGVFIGGIGNSGNEMCSNGVPALGVSSQTEIKVEKVQHTWTVKNFSHCYQEYLENFVYLQRGDEQLTWSIKIYPKGNGENNKDFVFLCLNRVINNNVKAGKIGFKSQFKLRTAENKDIEMRIHPNPSHSDYVSYIKRDVLFPQIMPRDMIIVNVEIDVAVETITTTNEPIQFEPTNSEQQLIEDYQRLFSQELLCDFAINVNGKIIRAHKAVLAARSPVFNAMLTHQDTDEAKSSMMYINDMDYDVIYEMVYYIYCGRCNKDITDMATALLIAADKYRLEELKSHCEKYLVENINIENACSLLIIGDLYSAPKLRKRAVTYILARPKNVTGTPGWEDILKGHPNLITDIFSQIDRQSSTGATSSVSNLPGVPMDIPGITGNIVPPPSGL
partner: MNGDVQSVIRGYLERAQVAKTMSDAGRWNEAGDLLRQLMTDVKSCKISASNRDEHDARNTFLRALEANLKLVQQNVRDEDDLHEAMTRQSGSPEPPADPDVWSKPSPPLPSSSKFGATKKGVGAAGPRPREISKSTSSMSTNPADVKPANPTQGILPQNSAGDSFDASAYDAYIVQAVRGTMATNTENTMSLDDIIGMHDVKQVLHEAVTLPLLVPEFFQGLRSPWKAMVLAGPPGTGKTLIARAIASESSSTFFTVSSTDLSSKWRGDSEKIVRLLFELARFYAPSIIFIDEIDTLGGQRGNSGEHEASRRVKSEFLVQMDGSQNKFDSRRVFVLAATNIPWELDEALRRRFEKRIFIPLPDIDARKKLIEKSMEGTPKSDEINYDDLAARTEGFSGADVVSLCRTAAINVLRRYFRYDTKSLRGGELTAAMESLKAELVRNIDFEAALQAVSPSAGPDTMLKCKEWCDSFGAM
B2: Cullin-3 (Caenorhabditis elegans), Q17391 (parent)
chain: MSGRSGNGGQQKMRIRPFMATIDEQYVTQTWELLKRAIQEIQRKNNSGLSFEELYRNAYTMVLHKHGERLYNGLKDVIQDHMASVRIRIIESMNSGSFLETVAESWADHTVAMVMIRDILMYMDRIYVAQNNHVLPVYNLGLDAYRTEILRQNGIGDRIRDALLELIKLDRKSNQINWHGIKNACDMLISLGIDSRTVYEDEFERPLLKETSDYYRDVCKNWLSGDNDACFYLAQVEIAMHDEASRASRYLDKMTEAKILQVMDDVMVAEHIQTIVYMQNGGVKFMLEHKKIEDLTRIFRIFKRIGDSVTVPGGGLKALLKAVSEYLNETGSNIVKNEDLLKNPVNFVNELLQLKDYFSSLLTTAFADDRDFKNRFQHDFETFLNSNRQSPEFVALYMDDMLRSGLKCVSDAEMDNKLDNVMILFRYLQEKDVFEKYFKQYLAKRLLLDKSCSDDVEKALLAKLKTECGCQFTQKLENMFRDKELWLTLATSFRDWREAQPTKMSIDISLRVLTAGVWPTVQCNPVVLPQELSVAYEMFTQYYTEKHTGRKLTINTLLGNADVKATFYPPPKASMSNEENGPGPSSSGESMKERKPEHKILQVNTHQMIILLQFNHHNRISCQQLMDELKIPERELKRNLQSLALGKASQRILVRKNKGKDAIDMSDEFAVNDNFQSKLTRVKVQMVTGKVESEPEIRETRQKVEDDRKLEVEAAIVRIMKARKKLNHNNLVAEVTQQLRHRFMPSPIIIKQRIETLIEREYLARDEHDHRAYQYIA
partner: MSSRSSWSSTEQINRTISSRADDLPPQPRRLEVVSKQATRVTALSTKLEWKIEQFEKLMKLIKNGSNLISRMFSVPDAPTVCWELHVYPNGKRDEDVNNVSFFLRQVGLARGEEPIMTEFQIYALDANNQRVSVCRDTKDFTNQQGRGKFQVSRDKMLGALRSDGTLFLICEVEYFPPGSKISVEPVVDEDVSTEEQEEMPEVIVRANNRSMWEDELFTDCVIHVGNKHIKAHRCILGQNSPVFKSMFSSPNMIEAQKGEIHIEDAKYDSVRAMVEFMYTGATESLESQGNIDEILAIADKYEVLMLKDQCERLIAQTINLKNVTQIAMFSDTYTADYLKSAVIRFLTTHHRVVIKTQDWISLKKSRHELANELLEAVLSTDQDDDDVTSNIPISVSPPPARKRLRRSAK
B3: Meiotic spindle formation protein mei-1 (Caenorhabditis elegans), P34808-2 (parent)
chain: B1 partner
partner: B1 chain
B4: Cullin-3 (Caenorhabditis elegans), Q17391 (parent)
chain: B2 chain
partner: B1 chain

Variants of: B1
Conditions: with mei-1, P34808-2

| Variant | effect of a mutation on the interaction |
| --- | --- |
| C94Y | decreasing interaction |

Variants of: B2
Conditions: with bat42_caeel bath-42, P34371

| Variant | effect of a mutation on the interaction |
| --- | --- |
| L49A | decreasing interaction |
| E52A | decreasing interaction |

Variants of: B3
Conditions: with mel26_caeel mel-26, Q94420

| Variant | effect of a mutation on the interaction |
| --- | --- |
| P99L | decreasing interaction |

Variants of: B4
Conditions: with mel26_caeel mel-26, Q94420

| Variant | effect of a mutation on the interaction |
| --- | --- |
| L49A | decreasing interaction |
| E52A | decreasing interaction |
